Assay results taken from the nanobody polyreactivity screen of Harvey et al. (2022).

Test: yeast display, Sf9 membrane polyspecificity reagent, FACS + sequencing; frameworks hold sequencing errors
Summary of the method: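 Synthetic nanobody libraries on Saccharomyces cerevisiae BJ5465 were galactose-induced for 36–48 hours, stained 1 hour at 4 °C with 10% biotinylated, detergent-solubilized Sf9 membrane reagent and enriched on streptavidin microbeads. FACS then separated cells into low and high (top ~1%) gates by anti-HA (expression) and streptavidin (reagent binding) fluorescence. Genes were colony-PCR amplified, MiSeq 2 × 250 sequenced and CDR-length filtered. A clone's polyreactivity label is that of its gate of origin.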

Question: Which “polyreactivity (PSR sort gate)” value does the source give for “QVQLVESGGVLVQSGVSLRLTCAASGITFNYNAMGWDSQAPGKERELVAAIRGSDSTTYYADSVKERFTISRDNAKNTVYLQMNSLKPEDTAVYYCAADYVQGFGFYYQWHYDYWGQGTQVTVSS” here?
Answer: low polyreactivity

Question: With “QVQLVESGGGLVQAGGILRLSCAASGSIFSGYAMGWYRQAPGKERELVAAITWRAASTYYADSVKGRFTISRDNAKNTVYLQMNSLKPEDTAVYYCAKEGWPKPAFYYWGQGTQVTVSS” as the sequence, how does the “polyreactivity (PSR sort gate)” value read?
Answer: low polyreactivity

Question: For “QVQLVESGGGLVQAGGSLRLSCAASGRVFSTNAMGWYRQAPGKERELVAGINSGGSTNYADSVKGRFTISRDNAKNTVSLQMNSLKPEDTAVYYCNATLRVESWYVHYGVDYDYWGQGTQVTVSS”, which “polyreactivity (PSR sort gate)” value is on record?
Answer: low polyreactivity

Question: With “QVQLVESGGGLVQAGGSLRLSCAASGYTFPLYAMGWYRQAPGQERELVADINIGGASTYYADSVKGRFTISRDNAKNTVYLQMNSLKPEDTAVYYSAKEYYDGYFPTFDYDYWGQGTQVTVSS” as the sequence, how does the “polyreactivity (PSR sort gate)” value read?
Answer: low polyreactivity

Question: Which “polyreactivity (PSR sort gate)” value does the source give for “QVQLVESGGGLVQAGGSLRLSCAASGITFATNAMGWYRQAPGKERELVAGITSGGSTYYADSVKGRFTISRDNAKNTVYLQMNSLKPEDTAVYYCNTAVKVERDYWGQGTQVTVSS” here?
Answer: low polyreactivity

Question: With “QVQLVESGGGLVQAGGSLRLSCAASGRTFWVYAMGWYRQAPGKERELVASIRRGGSTYYADSVKGRFTISRDNAKNTVYLQMNSLKPEDTAVYYCAAERPYKTFGYGYWGQGTQVTVSS” as the sequence, how does the “polyreactivity (PSR sort gate)” value read?
Answer: high polyreactivity

Question: Which “polyreactivity (PSR sort gate)” value does the source give for “QVQLVESGGGLVQAGGSLRLSCAASGSNYGFYAMGWYRKAPGKERELVAVISSDGSTNYADSVKGRFTISRDNAKNTVYLQMNSLKPEDTAVYYCAADWSITYGDGGYWGQGTQVTVSS” here?
Answer: low polyreactivity

Question: With “EVQVVESGGGLVQAGGSLRLSCAASGRIFLRNAMGWYRQAPGKEWEFVATITSGGSTFYADSVKGRFTISRDNAKNTFYLQMNRLKPEDTAVYYCAAPSYYTPFHTPNYCWGQVTQVTVSS” as the sequence, how does the “polyreactivity (PSR sort gate)” value read?
Answer: low polyreactivity

Question: Which “polyreactivity (PSR sort gate)” value does the source give for “QVQLVESGGGLVQAGGSLRLSCAASGFIFAYNAMGWYRQAPGKERELVAAISWSGGSTYYADSVKGRFTISRDNAKNTVFLQMNSLLPEDTAVYYCAARYRRNKYYYWGQGTQVTVSS” here?
Answer: high polyreactivity

Question: For “QVQLVESGGGLVQAGGSLRLSCAASGRIFTYYAMGWYRQAPGKERELVAAISYSGSSTYYADSVKGRFTISRDNAKNTVYLQMNSLKPEDTAVYYCAAAPSGHYLAYGYWGQGTQVTVSS”, which “polyreactivity (PSR sort gate)” value is on record?
Answer: high polyreactivity

Question: For “QVQLVESGGGLVQAGCSLRLSCAASGSIFDTNAKGWYRQAPGKERELVAAIYDNTGRTYYADSVKGRFTISRDNSKNTVYLQMNSQKPEDTAVYYCNAPRYYWISFARWPASYYYWGQGTQVTVSS”, which “polyreactivity (PSR sort gate)” value is on record?
Answer: high polyreactivity

Question: For “QVQLVESGGGLVQAGGSLRLSCAASGSTFRWYAMGWYRQAPGKERELVAAITWSGGRTYYADSVKGRFTISRDNAKNTVYLQMNSLKPEDTAVYYCAADRGPEHWYDYYYWGQGTQVTVSS”, which “polyreactivity (PSR sort gate)” value is on record?
Answer: high polyreactivity

Question: With “QVQLVESGGGLVQAGGSLRLSCAASGRIFDLNAMGWYRQAPGKERELVAVISWSGGIKYYADSVKGRFTISRDNAKNTVYLQMNSLKPEDTAVYYCNADTVFDPYYEFDYWGLGTQVTVSS” as the sequence, how does the “polyreactivity (PSR sort gate)” value read?
Answer: low polyreactivity

Question: For “HVQLVESGGGLVHAGGSLRLSCAASGSILPKYAMGWYRQEPGKQRLLVATITWSGSSTYYADSVKGRFTISRDNAQNTVYLQMNSLKPEDTAVYYCAATGWSSFYYRFEYWGQGTQVTVSS”, which “polyreactivity (PSR sort gate)” value is on record?
Answer: low polyreactivity

Question: With “QVQLVESGGGLVQSGGSLRLSCAASGSIFNRYAMGWYRQAPGKERELVAAISARGGSTYYADSVKGRFTISRDNAKNTVYLQMNSLKPEDTAVYYCAARRQGDYYYWGQGTQVTVSS” as the sequence, how does the “polyreactivity (PSR sort gate)” value read?
Answer: high polyreactivity

Question: Which “polyreactivity (PSR sort gate)” value does the source give for “QVQLVESGGGLVQAGGSLRLSSAASGRIFGYNAMGWYRQAPGKERELVAVITYRGTSTYYADSVKGRFTISRDNAKNTVYLQMNSLKPEDTAVYYCAAVNGGYWRYYYWGQGTQVTVSS” here?
Answer: high polyreactivity

Question: For “QGQLVESGGGLVQAGGSLRLSCAASGSIFSLNSMGWYRQAPGKERELVAASGGGSTYYADSVKGRFTISRDNAKNTVYLQMNSLKTEDTAVYYCAGDQSFDYDFSHYYYWGQGTQVTVSS”, which “polyreactivity (PSR sort gate)” value is on record?
Answer: low polyreactivity

Question: With “QVQLVESGGGLVQAGVSLRLSCAASGFIFEPSAMGWYRQAPGKERELVAAISSGGSTNADSVKGRFTISRDNAKNTVYLQMNSLKPEDTAVYYCAADSYYSVWGFYYWGQGTQVTVSS” as the sequence, how does the “polyreactivity (PSR sort gate)” value read?
Answer: low polyreactivity

Question: With “QVQHVESGRGLVQAGGSLRLSCAASGGTFNRYAMGWYRQAPGKERELVAAITSSGGSTYYADSVKGRFTISRDNAMNTVYLHMNSLNPEDTAVYYCNAPGFRRLWGLGYDYWGQGTQVTVSS” as the sequence, how does the “polyreactivity (PSR sort gate)” value read?
Answer: high polyreactivity

Question: Which “polyreactivity (PSR sort gate)” value does the source give for “QVQLVESGGGIVQAGGSLRLSCAASGSIFQGNAMGWYRQAAGKERELVAAITYSGGSTYYADSVKGRFTISRDNAKNTVYLQMNSLKPEDTAVSYCNTTLRDSRQYVDRAPYTRYDYWGQGTQVTVSS” here?
Answer: low polyreactivity

Question: For “QVQLVESGGGLVQAGGSLRLSCAASGSNFFYNVMGWYRQAPGKERELVAAITRSGGRTYYADSVKGRFTISRDNAKNTVYLQMNSLKPEDTAVYYCAAALGGKFDYWGQGTQVTVSS”, which “polyreactivity (PSR sort gate)” value is on record?
Answer: high polyreactivity

Question: Which “polyreactivity (PSR sort gate)” value does the source give for “QVQLVESGGGLVQAGGSLRLTCAASGIIFDDYAMGWYRQAPGKERELVAAISWIGTTTYYADSVKGRFTISRDNAKKTVYFQMNILKPEDTAVYYCNARPYPSYKYDYWGQGTQVTVSS” here?
Answer: high polyreactivity

Question: For “QVQLVESGGGLVQAGGSLRISCAASGSTFSLNAMGWYRQAPGKERELVAAISSRGTSTYYADSVKGRFTISRDNAKNTVYLQMNSLKPVDTAVYYCAAGKPKIPDDDYWGQGTQVTVSS”, which “polyreactivity (PSR sort gate)” value is on record?
Answer: high polyreactivity

Question: For “QVQLVESGGGLVQAGGSLRLSCAASGSTFSQYAMGWYRQAPGKERELVAAITGSTGSTYYADSVKGRFTISRDNAKNTVYLQMNSLKPEDTAVYYCAAVSSNARHVSRRRGYYWGQGTQVTVSS”, which “polyreactivity (PSR sort gate)” value is on record?
Answer: high polyreactivity

Question: Which “polyreactivity (PSR sort gate)” value does the source give for “QVQLVETGGGLVQAGGSLRLSCADSGSICEQYTMGWYRQAPGKERELVAGSSSGGITNYADSVKGRFTISRDNAKNTVYLQMNSLKPEDTAVYYCAADNWYLAEYDYWGEGTQVTVSS” here?
Answer: low polyreactivity

Question: With “QVQLVESGGGLVQAGGSLRLSCAASGYIFYAYAMGWYRQAPGKERELVAAISSGGGRTYYADSVKGRFTISRDNAKNTVYLQMNSLKPEDTAVYYCAARRRDRGEYYYWGQGTQVTVSS” as the sequence, how does the “polyreactivity (PSR sort gate)” value read?
Answer: high polyreactivity

Question: With “QVQLVEPGGGLVQAGGSLRLSCAASGSTFTLYAMGWYRQAPGKERELVATLTGSAGSTNYADSVKGRFTISRDNAKNTVYLQMNSLKPEDTAVYYCAKRVQQSTWYGYGIGYEYWGQGTQVTVSS” as the sequence, how does the “polyreactivity (PSR sort gate)” value read?
Answer: high polyreactivity

Question: For “QVQLVESGGGLVQAGGSLRLSCAASGRIFGRYAMGWYRQAPGKDRELVAAITYSGGSTYYADSVKGRFTISRDNAKNTVYFQMNSLKPEDTALYYCNAVAYRSRGPHFNYWGQGTQVTVST”, which “polyreactivity (PSR sort gate)” value is on record?
Answer: high polyreactivity

Question: With “QVQLVESGGGLVQAGGSLRLSCAASGSIFTRYAMGWYRQAPGKERELVAAITASGGRTYYADSVKGRFTISRDNAKNTVYLQMNSLKPEDTAVYYCNTYWRFTSQLPYDYWGQGTQVTVSS” as the sequence, how does the “polyreactivity (PSR sort gate)” value read?
Answer: high polyreactivity

Question: Which “polyreactivity (PSR sort gate)” value does the source give for “QVQLVESAGGLVQAGGSLRLSCAASGIIFVENAMGWYRQAPGKERELVAAISWDGGSTYYADSVKGRFTISRDNAKNTVYLQMNSLNPEDTAVYYCAADLTISYSQEYYYWGQGTQVTVSS” here?
Answer: low polyreactivity
